This is an account of results in US20210371505A1.

Assay in all cases: cell-based or functional assay
Experiment [1] addresses Hemagglutinin of influenza virus A/Shanghai/01/2013-PR8 (H7N9) (Influenza A virus A/Shanghai/01/2013-PR8 (H7N9)).
For experiment [2], the target named is Hemagglutinin of influenza virus A/Aichi/02/1968-PR8-X31 (H3N2) (Influenza A virus A/Aichi/02/1968-PR8-X31 (H3N2)) (UniProt P03437).
The target of experiment [3] is Hemagglutinin of influenza virus A/Philippines/01/1982 (H3N2) (Influenza A virus A/Philippines/01/1982 (H3N2)).

“Irrelevant/negative hIgG1 control (antibody)”: the IC50 of neutralization, cell viability microneutralization assay on MDCK cells in experiment [1] is above 6.67 µM; in experiment [2], above 0.833 µM; in experiment [3], above 3.33 µM.
